Experiments:
[1] = target: 6xHis-tagged cell-wall binding domain of endolysin CD16/50L, wild type (Clostridioides difficile phage ϕHN50 (identical in ϕHN16-1)); test: SEC; Superdex 75 10/300 GL, 50 mM Tris-HCl (pH 8.0), 500 mM NaCl, 0.5 mL/min; approximately 2.5 mg/mL of each purified 6xHis-CBD variant injected separately; size from calibration with standard proteins
PG-PS complex = test: co-precipitation (pull-down) with PG-PS complex, SDS-PAGE band quantification; details: parent: est. 1.0; read off a plot
[2] = target: CD16/50L CBD wild type fused to SmBit and to LgBit (CBD-SmBit/LgBit, plasmid pWP004) (Clostridioides difficile phage ϕHN50 (identical in ϕHN16-1)); test: split reporter (BiFC, NanoBiT); BitLuc^opt split luciferase in live C. difficile R20291; CBD-SmBit and CBD-LgBit co-expressed, induced with 4% (wt/vol) xylose for 2 h; Nano-Glo (furimazine) substrate, luminescence read
[3] = target: CD16/50L CBD C234A fused to SmBit and to LgBit; test: split complementary luciferase assay (SmBit/LgBit) in C. difficile cells; details: 4% (wt/vol) xylose for 2 h; furimazine substrate incubated for 5 min; parent: est. 6.0; read off a plot
[4] = target: CD16/50L CBD E239A fused to SmBit and to LgBit; test: as above; details: 4% (wt/vol) xylose for 2 h; furimazine substrate incubated for 5 min; parent: est. 6.0; read off a plot
[5] = target: CD16/50L CBD F248A fused to SmBit and to LgBit; test: as above; details: 4% (wt/vol) xylose for 2 h; furimazine substrate incubated for 5 min; parent: est. 6.0; read off a plot
[6] = target: CD16/50L CBD M260A fused to SmBit and to LgBit; test: as above; details: 4% (wt/vol) xylose for 2 h; furimazine substrate incubated for 5 min; parent: est. 6.0; read off a plot
[7] = target: CD16/50L CBD Q250A fused to SmBit and to LgBit; test: as above; details: 4% (wt/vol) xylose for 2 h; furimazine substrate incubated for 5 min; parent: est. 6.0; read off a plot
[8] = target: CD16/50L CBD W257A fused to SmBit and to LgBit; test: as above; details: 4% (wt/vol) xylose for 2 h; furimazine substrate incubated for 5 min; parent: est. 6.0; read off a plot
[9] = target: CD16/50L CBD Y202A fused to SmBit and to LgBit; test: as above; details: 4% (wt/vol) xylose for 2 h; furimazine substrate incubated for 5 min; parent: est. 6.0; read off a plot
[10] = target: CD16/50L CBD (Y202A, W257A) fused to SmBit and to LgBit; test: as above; details: 4% (wt/vol) xylose for 2 h; furimazine substrate incubated for 5 min; parent: est. 6.0; read off a plot

“6xHis-tagged cell-wall binding domain of endolysin CD16/50L, wild type (domain or fragment)” gave a stoichiometry N [1] of 2.

With “6xHis-tagged cell-wall binding domain of endolysin CD16/50L, wild type W257A” the ratio to parent (PG-PS complex) was 0.35.

For “6xHis-tagged cell-wall binding domain of endolysin CD16/50L, wild type Y202A; W257A”, the ratio to parent (PG-PS complex) was 0.47.

Substance “CD16/50L CBD wild type fused to SmBit and to LgBit (CBD-SmBit/LgBit, plasmid pWP004) (domain or fragment)” has a fold increase of the luciferase signal over the single-fragment controls [2] of less than 300 fold.

“CD16/50L CBD wild type fused to SmBit and to LgBit (CBD-SmBit/LgBit, plasmid pWP004) C234A” gave a response [3] of 6 log RLU.

“CD16/50L CBD wild type fused to SmBit and to LgBit (CBD-SmBit/LgBit, plasmid pWP004) E239A” showed a response [4] of 6.1 log RLU.

Work on “CD16/50L CBD wild type fused to SmBit and to LgBit (CBD-SmBit/LgBit, plasmid pWP004) F248A” yielded a response [5] of 6 log RLU.

“CD16/50L CBD wild type fused to SmBit and to LgBit (CBD-SmBit/LgBit, plasmid pWP004) M260A” showed a response [6] of 6 log RLU.

Work on “CD16/50L CBD wild type fused to SmBit and to LgBit (CBD-SmBit/LgBit, plasmid pWP004) Q250A” yielded a response [7] of 6 log RLU.

“CD16/50L CBD wild type fused to SmBit and to LgBit (CBD-SmBit/LgBit, plasmid pWP004) W257A” was tested, and the response [8] was 4.9 log RLU.

Work on “CD16/50L CBD wild type fused to SmBit and to LgBit (CBD-SmBit/LgBit, plasmid pWP004) Y202A” yielded a response [9] of 5.9 log RLU.

With “CD16/50L CBD wild type fused to SmBit and to LgBit (CBD-SmBit/LgBit, plasmid pWP004) Y202A; W257A” the response [10] was 3.5 log RLU.

From paper PMC9045149
